Experiments:
Cts1 = target: T1, Cts1 (Mycosarcoma maydis, UniProt A0A0D1DVM8); experiment: fluorogenic chitinase assay, intact cells or native extract; assay type: cell-based; settings: KHM buffer (110 mM potassium acetate, 20 mM Hepes, 2 mM MgCl2), 25 °C
T1 construct: gene UMAG_10419; native Cts1, extracellular on intact U. maydis AB33 cells or in native cell extracts
T1 sequence (A0A0D1DVM8 1-502): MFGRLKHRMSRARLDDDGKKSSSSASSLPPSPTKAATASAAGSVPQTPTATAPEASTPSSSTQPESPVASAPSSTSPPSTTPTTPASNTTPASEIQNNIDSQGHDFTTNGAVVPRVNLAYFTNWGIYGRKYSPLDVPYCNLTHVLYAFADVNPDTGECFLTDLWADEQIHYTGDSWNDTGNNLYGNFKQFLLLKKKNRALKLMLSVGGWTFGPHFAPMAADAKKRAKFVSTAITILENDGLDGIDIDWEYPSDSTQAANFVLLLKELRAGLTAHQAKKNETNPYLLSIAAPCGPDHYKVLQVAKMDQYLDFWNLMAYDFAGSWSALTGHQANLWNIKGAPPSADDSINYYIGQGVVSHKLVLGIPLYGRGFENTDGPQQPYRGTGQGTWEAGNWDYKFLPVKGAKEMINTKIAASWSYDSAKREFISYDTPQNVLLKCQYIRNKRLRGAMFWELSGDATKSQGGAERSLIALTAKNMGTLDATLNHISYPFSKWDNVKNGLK

[1] = target: Hebeloma cylindrosporum Jps1, full-length recombinant (Hebeloma cylindrosporum); experiment: SEC-MALS; after SEC purification the sample was applied to a Superdex 200 10/30 column coupled to a miniDAWN TREOS light scattering detector and a refractive index detector; monomer to dimer
UmJps1 (Jps1^1-609) = target: T2, UmJps1 (Jps1^1-609) (Mycosarcoma maydis, UniProt A0A0D1C3B2); experiment: liposome co-sedimentation, SDS-PAGE; assay type: binding; settings: DOPC:cholesterol:PIP 80:15:5 (with cholesterol); protein:lipid 1:5000; pH 7.5, room temperature
T2 construct: gene UMAG_03776; full length, 609 residues; 6xHis-Jps1 made in E. coli Rosetta(DE3) pLyS (pET22b, C-terminal His-tag in strip assay); homodimer 134 kDa
T2 sequence (A0A0D1C3B2 1-609): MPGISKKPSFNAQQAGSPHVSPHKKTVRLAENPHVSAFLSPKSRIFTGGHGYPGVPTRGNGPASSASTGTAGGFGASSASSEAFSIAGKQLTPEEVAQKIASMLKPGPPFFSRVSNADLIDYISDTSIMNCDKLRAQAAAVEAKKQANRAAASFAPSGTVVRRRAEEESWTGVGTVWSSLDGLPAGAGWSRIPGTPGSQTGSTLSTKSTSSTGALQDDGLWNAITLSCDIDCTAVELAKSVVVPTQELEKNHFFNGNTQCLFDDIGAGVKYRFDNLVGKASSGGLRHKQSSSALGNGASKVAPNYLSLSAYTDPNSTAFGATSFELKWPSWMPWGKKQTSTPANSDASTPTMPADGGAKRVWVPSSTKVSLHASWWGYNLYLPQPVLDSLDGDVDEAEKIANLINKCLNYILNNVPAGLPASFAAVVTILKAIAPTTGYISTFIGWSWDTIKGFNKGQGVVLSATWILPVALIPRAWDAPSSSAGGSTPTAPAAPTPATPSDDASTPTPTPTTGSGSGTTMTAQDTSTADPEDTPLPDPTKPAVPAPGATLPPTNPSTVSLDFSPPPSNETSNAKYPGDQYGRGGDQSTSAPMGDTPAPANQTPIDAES

HcJps1 = target: T3, HcJps1 (Hebeloma cylindrosporum, UniProt A0A0C3CFZ0); experiment: surface plasmon resonance, immobilised liposomes, steady-state affinity; assay type: binding; settings: DOPC/PI(4,5)P2 liposomes (1 mM lipid) on LP chip, DOPC reference; 20 mM Hepes pH 7.5, 20 mM KCl, 200 mM NaCl; 0.2-6.4 μM protein
T3 construct: gene M413DRAFT_206302; full length, 287 residues; 6xHis-GB1 fusion made in E. coli (GB1 tag cleaved with TEV before SEC; codon-optimised gene for U. maydis)
T3 sequence (A0A0C3CFZ0 1-287): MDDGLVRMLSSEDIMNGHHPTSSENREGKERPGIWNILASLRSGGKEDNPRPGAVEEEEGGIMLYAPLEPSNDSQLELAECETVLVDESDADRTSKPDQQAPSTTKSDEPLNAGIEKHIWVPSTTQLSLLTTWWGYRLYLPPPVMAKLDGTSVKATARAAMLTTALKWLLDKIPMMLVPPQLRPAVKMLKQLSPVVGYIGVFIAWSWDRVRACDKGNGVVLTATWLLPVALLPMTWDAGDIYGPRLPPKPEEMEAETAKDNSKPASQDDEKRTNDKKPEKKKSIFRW

[2] = target: Sporisorium reilianum Jps1, full-length recombinant (Sporisorium reilianum); experiment: mass photometry; TwoMP mass photometer, protein at 10 nM in Hepes buffer, room temperature; monomer to dimer
[3] = target: Sporisorium reilianum Jps1, full-length recombinant (Sporisorium reilianum); experiment: SEC-MALS; after SEC purification the sample was applied to a Superdex 200 10/30 column coupled to a miniDAWN TREOS light scattering detector and a refractive index detector; monomer to dimer
[4] = target: Ustilago maydis Jps1, full-length recombinant (Jps1^1-609) (Ustilago maydis); experiment: mass photometry; TwoMP mass photometer, protein at 10 nM in Hepes buffer, room temperature; monomer to dimer
[5] = target: Ustilago maydis Jps1, full-length recombinant (Jps1^1-609) (Ustilago maydis); experiment: SEC-MALS; after SEC purification the sample was applied to a Superdex 200 10/30 column coupled to a miniDAWN TREOS light scattering detector and a refractive index detector; monomer to dimer
[6] = target: Ustilago maydis Jps1^1-484 (lacking the unstructured C-terminus) (Ustilago maydis); experiment: SAXS; P12 beamline, batch mode, 10 °C, 0.6 mg/ml purified Jps1^1-484; rigid body modeling of the dimer with CORAL
[7] = target: Ustilago maydis Jps1^1-484 (lacking the unstructured C-terminus) (Ustilago maydis); experiment: SEC-MALS; after SEC purification the sample was applied to a Superdex 200 10/30 column coupled to a miniDAWN TREOS light scattering detector and a refractive index detector; monomer to dimer

CC(=O)N[C@H]1[C@H](Oc2ccc3c(C)cc(=O)oc3c2)O[C@H](CO)[C@@H](O[C@@H]2O[C@H](CO)[C@@H](O[C@@H]3O[C@H](CO)[C@@H](O)[C@H](O)[C@H]3NC(C)=O)[C@H](O)[C@H]2NC(C)=O)[C@@H]1O [MUC, 4-methylumbelliferyl-β-D-N, N′, N’’-triacetylchitotrioside]
fluorogenic chitinase assay, intact cells or native extract (Cts1): MUC, a fluorogenic substrate 4-methylumbelliferyl-β-D-N, N′, N’’-triacetylchitotrioside

Hebeloma cylindrosporum Jps1, full-length recombinant (natural protein)
stoichiometry N [1]: 2

PI(4,5)P2
% of input protein bound (UmJps1 (Jps1^1-609)): ~ 50% | Kd (HcJps1): 900 nM

Sporisorium reilianum Jps1, full-length recombinant (natural protein)
stoichiometry N [2]: 2 | stoichiometry N [3]: 2

Ustilago maydis Jps1, full-length recombinant (Jps1^1-609) (natural protein)
percent of particles in the dimer fraction [4]: 69% | stoichiometry N [4]: 2 | stoichiometry N [5]: 2

Ustilago maydis Jps1^1-484 (lacking the unstructured C-terminus) (domain or fragment)
stoichiometry N [6]: 2 | stoichiometry N [7]: 2

— article PMC12167484, “Specific phosphoinositide interaction of Jps1 is a key feature during unconventional secretion in Ustilago maydis” (The Journal of Biological Chemistry, 2025)
